Experimental data reported in publication PMC4114212 (Science signaling, 2012).
Like-named read-outs stand apart in the source and are kept apart here.

Experiments:
[1] = target: T1, TRAF domain of mouse TRAF3 (residues 376 through the C terminus), wild type (mouse, UniProt Q60803 376-567); experiment: pull-down
T1 sequence (looked up): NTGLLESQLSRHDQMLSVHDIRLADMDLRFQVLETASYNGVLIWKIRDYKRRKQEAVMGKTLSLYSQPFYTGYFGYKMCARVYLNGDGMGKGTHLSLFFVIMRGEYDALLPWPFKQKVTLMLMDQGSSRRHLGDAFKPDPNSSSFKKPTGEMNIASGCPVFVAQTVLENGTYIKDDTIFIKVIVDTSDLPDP

[2] = target: T2, Cardif peptide (residues 138 to 158) used for cocrystallization with TRAF3; experiment: crystal structure
T2 peptide: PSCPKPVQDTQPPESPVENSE

crystal structure [3] = target: the molecule itself; experiment: crystal structure
crystal structure [4] = target: the molecule itself; experiment: crystal structure; remark: listed apart in the source

PSCPKPVQDTQPPESP [GST-tagged Cardif peptide, residues 138 to 153 (encompasses T2BM)]
binding result [1]: binds

B1: recombinant TRAF domain of TRAF3 (residues 376 to 565), shortened by trypsin for crystallisation (domain or fragment, mouse, UniProt Q60803 376-565, looked up)
chain: NTGLLESQLSRHDQMLSVHDIRLADMDLRFQVLETASYNGVLIWKIRDYKRRKQEAVMGKTLSLYSQPFYTGYFGYKMCARVYLNGDGMGKGTHLSLFFVIMRGEYDALLPWPFKQKVTLMLMDQGSSRRHLGDAFKPDPNSSSFKKPTGEMNIASGCPVFVAQTVLENGTYIKDDTIFIKVIVDTSDLP
stoichiometry N [2]: 1 | stoichiometry N (crystal structure [3]): 3

B2: TRAF domain of TRAF5, crystallised construct (residues 381 through the C-terminal end) (domain or fragment, mouse, UniProt P70191 381-558, looked up)
chain: NIHKAQLNKNEERFKQLEGACYSGKLIWKVTDYRVKKREAVEGHTVSVFSQPFYTSRCGYRLCARAYLNGDGSGKGTHLSLYFVVMRGEFDSLLQWPFRQRVTLMLLDQSGKKNHIVETFKADPNSSSFKRPDGEMNIASGCPRFVSHSTLENSKNTYIKDDTLFLKVAVDLTDLEDL
stoichiometry N (crystal structure [4]): 3
